Reference: the supplement of paper PMC5998384

What was measured:
HeLa Kyoto [1] = test: thermal stability score vs G1/S (z-score of summed log2 fold changes over temperatures); higher = more thermally stable than in G1/S
HeLa Kyoto [2] = test: solubility change mitosis vs G1/S (difference of NP-40 vs SDS log2 ratios) (log2 ratio difference); higher = more soluble in mitosis
HeLa Kyoto [3] = test: solubility in G1/S (NP-40 vs SDS abundance) (log2 ratio); higher = more soluble; settings: cell cycle stage: G1/S
[4] = cell cycle stage: early G1 (4.5 h after nocodazole release)
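Wherever solubility change mitosis vs G1/S (difference of NP-40 vs SDS log2 ratios) is given: synchronized HeLa Kyoto cells (double thymidine block for G1/S, nocodazole release for mitosis), protein amounts in NP-40 versus SDS lysates quantified by mass spectrometry, three biological replicates.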
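Wherever solubility in G1/S (NP-40 vs SDS abundance) is given: HeLa Kyoto cells arrested at G1/S by double thymidine block, proteins quantified by TMT10plex mass spectrometry in mild NP-40 versus SDS extracts, three biological replicates.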
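Wherever thermal stability score vs G1/S (z-score of summed log2 fold changes over temperatures) is given: synchronized HeLa Kyoto cells, proteins quantified by TMT10plex mass spectrometry, three biological replicates, mitosis taken 0.5 h after nocodazole release, G1/S directly after double thymidine block.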

Substance	thermal stability score (HeLa Kyoto [1]; [4])	thermal stability score (HeLa Kyoto [1]; cell cycle stage: mitosis)	solubility change mitosis (log2) (HeLa Kyoto [2])	solubility in G1/S (log2) (HeLa Kyoto [3])
MLPFLLATLGTTALNNSNPKDYCYSARIRSTVLQGLPFGGVPTVLALDFMCFLALLFLFSILRKVAWDYGRLALVTDADRLRRQERDRVEQEYVASAMHGDSHDRYERLTSVSSSVDFDQRDNGFCSWLTAIFRIKDDEIRDKCGGDAVHYLSFQRHIIGLLVVVGVLSVGIVLPVNFSGDLLENNAYSFGRTTIANLKSGNNLLWLHTSFAFLYLLLTVYSMRRHTSKMRYKEDDLVKRTLFINGISKYAESEKIKKHFEEAYPNCTVLEARPCYNVARLMFLDAERKKAERGKLYFTNLQSKENVPTMINPKPCGHLCCCVVRGCEQVEAIEYYTKLEQKLKEDYKREKEKVNEKPLGMAFVTFHNETITAIILKDFNVCKCQGCTCRGEPRPSSCSESLHISNWTVSYAPDPQNIYWEHLSIRGFIWWLRCLVINVVLFILLFFLTTPAIIITTMDKFNVTKPVEYLNNPIITQFFPTLLLWCFSALLPTIVYYSAFFEAHWTRSGENRTTMHKCYTFLIFMVLLLPSLGLSSLDLFFRWLFDKKFLAEAAIRFECVFLPDNGAFFVNYVIASAFIGNAMDLLRIPGLLMYMIRLCLARSAAERRNVKRHQAYEFQFGAAYAWMMCVFTVVMTYSITCPIIVPFGLMYMLLKHLVDRYNLYYAYLPAKLDKKIHSGAVNQVVAAPILCLFWLLFFSTMRTGFLAPTSMFTFVVLVITIVICLCHVCFGHFKYLSAHNYKIEHTETDTVDPRSNGRPPTAAAVPKSAKYIAQVLQDSEVDGDGDGAPGSSGDEPPSSSSQDEELLMPPDALTDTDFQSCEDSLIENEIHQ [TMEM63B]	-2.78	-2.41	-0.109	-0.0696
MED13	-0.573	-0.435	-0.112	-0.213
MNLAEICDNAKKGREYALLGNYDSSMVYYQGVMQQIQRHCQSVRDPAIKGKWQQVRQELLEEYEQVKSIVSTLESFKIDKPPDFPVSCQDEPFRDPAVWPPPVPAEHRAPPQIRRPNREVRPLRKEMAGVGARGPVGRAHPISKSEKPSTSRDKDYRARGRDDKGRKNMQDGASDGEMPKFDGAGYDKDLVEALERDIVSRNPSIHWDDIADLEEAKKLLREAVVLPMWMPDFFKGIRRPWKGVLMVGPPGTGKTMLAKAVATECGTTFFNVSSSTLTSKYRGESEKLVRLLFEMARFYAPTTIFIDEIDSICSRRGTSDEHEASRRVKSELLIQMDGVGGALENDDPSKMVMVLAATNFPWDIDEALRRRLEKRIYIPLPTAKGRAELLKINLREVELDPDIQLEDIAEKIEGYSGADITNVCRDASLMAMRRRINGLSPEEIRALSKEELQMPVTKGDFELALKKIAKSVSAADLEKYEKWMVEFGSA [KATNAL1]	1.07	0.457	0.119	0.0559
MELKVWVDGVQRIVCGVTEVTTCQEVVIALAQAIGRTGRYTLIEKWRDTERHLAPHENPIISLNKWGQYASDVQLILRRTGPSLSERPTSDSVARIPERTLYRQSLPPLAKLRPQIDKSIKRREPKRKSLTFTGGAKGLMDIFGKGKETEFKQKVLNNCKTTADELKKLIRLQTEKLQSIEKQLESNEIEIRFWEQKYNSNLEEEIVRLEQKIKRNDVEIEEEEFWENELQIEQENEKQLKDQLQEIRQKITECENKLKDYLAQIRTMESGLEAEKLQREVQEAQVNEEEVKGKIGKVKGEIDIQGQQSLRLENGIKAVERSLGQATKRLQDKEQELEQLTKELRQVNLQQFIQQTGTKVTVLPAEPIEIEASHADIEREAPFQSGSLKRPGSSRQLPSNLRILQNPISSGFNPEGIYV [RASSF8]	0.245	-0.268	0.00342	0.445
MLQNPQEKSQAYPRRRRPGCYAYRQNPEAIAAAAMYTFLPDNFSPAKPKPSKDLKPLLGSAVLGLLLVLAAVVAWCYYSVSLRKAERLRAELLDLKAGGFSIRNQKGEQVFRLAFRSGALDLDSCSRDGALLGCSLTADGLPLHFFIQTVRPKDTVMCYRVRWEEAAPGRAVEHAMFLGDAAAHWYGGAEMRTQHWPIRLDGQQEPQPFVTSDVYSSDAAFGGILERYWLSSRAAAIKVNDSVPFHLGWNSTERSLRLQARYHDTPYKPPAGRAAAPELSYRVCVGSDVTSIHKYMVRRYFNKPSRVPAPEAFRDPIWSTWALYGRAVDQDKVLRFAQQIRLHHFNSSHLEIDDMYTPAYGDFDFDEVKFPNASDMFRRLRDAGFRVTLWVHPFVNYNSSRFGEGVERELFVREPTGRLPALVRWWNGIGAVLDFTHPKARDWFQGHLRRLRSRYSVASFKFDAGEVSYLPRDFSTYRPLPDPSVWSRRYTEMALPFFSLAEVRVGYQSQNISCFFRLVDRDSVWGYDLGLRSLIPAVLTVSMLGYPFILPDMVGGNAVPQRTAGGDVPERELYIRWLEVAAFMPAMQFSIPPWRYDAEVVAIAQKFAALRASLVAPLLLELAGEVTDTGDPIVRPLWWIAPGDETAHRIDSQFLIGDTLLVAPVLEPGKQERDVYLPAGKWRSYKGELFDKTPVLLTDYPVDLDEIAYFTWAS [KIAA1161]	-4.62	-3.21	-0.254	0.099
APOBEC3B	0.584	1.24	0.177	-0.745
MASAAVESFVTKQLDLLELERDAEVEERRSWQENISLKELQSRGVCLLKLQVSSQRTGLYGRLLVTFEPRRYGSAAALPSNSFTSGDIVGLYDAANEGSQLATGILTRVTQKSVTVAFDESHDFQLSLDRENSYRLLKLANDVTYRRLKKALIALKKYHSGPASSLIEVLFGRSAPSPASEIHPLTFFNTCLDTSQKEAVLFALSQKELAIIHGPPGTGKTTTVVEIILQAVKQGLKVLCCAPSNIAVDNLVERLALCKQRILRLGHPARLLESIQQHSLDAVLARSDSAQIVADIRKDIDQVFVKNKKTQDKREKSNFRNEIKLLRKELKEREEAAMLESLTSANVVLATNTGASADGPLKLLPESYFDVVVIDECAQALEASCWIPLLKARKCILAGDHKQLPPTTVSHKAALAGLSLSLMERLAEEYGARVVRTLTVQYRMHQAIMRWASDTMYLGQLTAHSSVARHLLRDLPGVAATEETGVPLLLVDTAGCGLFELEEEDEQSKGNPGEVRLVSLHIQALVDAGVPARDIAVVSPYNLQVDLLRQSLVHRHPELEIKSVDGFQGREKEAVILSFVRSNRKGEVGFLAEDRRINVAVTRARRHVAVICDSRTVNNHAFLKTLVEYFTQHGEVRTAFEYLDDIVPENYSHENSQGSSHAATKPQGPATSTRTGSQRQEGGQEAAAPARQGRKKPAGKSLASEAPSQPSLNGGSPEGVESQDGVDHFRAMIVEFMASKKMQLEFPPSLNSHDRLRVHQIAEEHGLRHDSSGEGKRRFITVSKRAPRPRAALGPPAGTGGPAPLQPVPPTPAQTEQPPREQRGPDQPDLRTLHLERLQRVRSAQGQPASKEQQASGQQKLPEKKKKKAKGHPATDLPTEEDFEALVSAAVKADNTCGFAKCTAGVTTLGQFCQLCSRRYCLSHHLPEIHGCGERARAHARQRISREGVLYAGSGTKNGSLDPAKRAQLQRRLDKKLSELSNQRTSRRKERGT [IGHMBP2]	0.859	0.156	0.296	-0.73
MKVVPEKNAVRILWGRERGARAMGAQRLLQELVEDKTRWMKWEGKRVELPDSPRSTFLLAFSPDRTLLASTHVNHNIYITEVKTGKCVHSLIGHRRTPWCVTFHPTISGLIASGCLDGEVRIWDLHGGSESWFTDSNNAIASLAFHPTAQLLLIATANEIHFWDWSRREPFAVVKTASEMERVRLVRFDPLGHYLLTAIVNPSNQQGDDEPEIPIDGTELSHYRQRALLQSQPVRRTPLLHNFLHMLSSRSSGIQVGEQSTVQDSATPSPPPPPPQPSTERPRTSAYIRLRQRVSYPTAECCQHLGILCLCSRCSGTRVPSLLPHQDSVPPASARATTPSFSFVQTEPFHPPEQASSTQQDQGLLNRPSAFSTVQSSTAGNTLRNLSLGPTRRSLGGPLSSHPSRYHREIAPGLTGSEWTRTVLSLNSRSEAESMPPPRTSASSVSLLSVLRQQEGGSQASVYTSATEGRGFPASGLATESDGGNGSSQNNSGSIRHELQCDLRRFFLEYDRLQELDQSLSGEAPQTQQAQEMLNNNIESERPGPSHQPTPHSSENNSNLSRGHLNRCRACHNLLTFNNDTLRWERTTPNYSSGEASSSWQVPSSFESVPSSGSQLPPLERTEGQTPSSSRLELSSSASPQEERTVGVAFNQETGHWERIYTQSSRSGTVSQEALHQDMPEESSEEDSLRRRLLESSLISLSRYDGAGSREHPIYPDPARLSPAAYYAQRMIQYLSRRDSIRQRSMRYQQNRLRSSTSSSSSDNQGPSVEGTDLEFEDFEDNGDRSRHRAPRNARMSAPSLGRFVPRRFLLPEYLPYAGIFHERGQPGLATHSSVNRVLAGAVIGDGQSAVASNIANTTYRLQWWDFTKFDLPEISNASVNVLVQNCKIYNDASCDISADGQLLAAFIPSSQRGFPDEGILAVYSLAPHNLGEMLYTKRFGPNAISVSLSPMGRYVMVGLASRRILLHPSTEHMVAQVFRLQQAHGGETSMRRVFNVLYPMPADQRRHVSINSARWLPEPGLGLAYGTNKGDLVICRPEALNSGVEYYWDQLNETVFTVHSNSRSSERPGTSRATWRTDRDMGLMNAIGLQPRNPATSVTSQGTQTLALQLQNAETQTEREVPEPGTAASGPGEGEGSEYGASGEDALSRIQRLMAEGGMTAVVQREQSTTMASMGGFGNNIIVSHRIHRSSQTGTEPGAAHTSSPQPSTSRGLLPEAGQLAERGLSPRTASWDQPGTPGREPTQPTLPSSSPVPIPVSLPSAEGPTLHCELTNNNHLLDGGSSRGDAAGPRGEPRNR [AMBRA1]	0.941	1.96	-0.123	0.0307
MTSAAEIKKPPVAPKPKFVVANNKPAPPPIAPKPDIVISSVPQSTKKMKPAIAPKPKVLKTSPVREIGQSPSRKIMLNLEGHKQELAESTDNFNCKYEGNQSNDYISPMCSCSSECIHKLGHRENLCVKQLVLEPLEMNENLENSKIDETLTIKTRSKCDLYGEKAKNQGGVVLKASVLEEELKDALIHQMPPFISAQKHRPTDSPEMNGGCNSNGQFRIEFADLSPSPSSFEKVPDHHSCHLQLPSDECEHFETCQDDSEKSNNCFQSSELEALENGKRSTLISSDGVSKKSEVKDLGPLEIHLVPYTPKFPTPKPRKTRTARLLRQKCVDTPSESTEEPGNSDSSSSCLTENSLKINKISVLHQNVLCKQEQVDKMKLGNKSELNMESNSDAQDLVNSQKAMCNETTSFEKMAPSFDKDSNLSSDSTTVDGSSMSLAVDEGTGFIRCTVSMSLPKQLKLTCNEHLQSGRNLGVSAPQMQKESVIKEENSLRIVPKKPQRHSLPATGVLKKAASEELLEKSSYPSSEEKSSEKSLERNHLQHLCAQNRGVSSSFDMPKRASEKPVWKLPHPILPFSGNPEFLKSVTVSSNSEPSTALTKPRAKSLSAMDVEKCTKPCKDSTKKNSFKKLLSMKLSICFMKSDFQKFWSKSSQLGDTTTGHLSSGEQKGIESDWQGLLVGEEKRSKPIKAYSTENYSLESQKKRKKSRGQTSAANGLRAESLDDQMLSRESSSQAPYKSVTSLCAPEYENIRHYEEIPEYENLPFIMAIRKTQELEWQNSSSMEDADANVYEVEEPYEAPDGQLQLGPRHQHSSSGASQEEQNDLGLGDLPSDEEEIINSSDEDDVSSESSKGEPDPLEDKQDEDNGMKSKVHHIAKEIMSSEKVFVDVLKLLHIDFRDAVAHASRQLGKPVIEDRILNQILYYLPQLYELNRDLLKELEERMLHWTEQQRIADIFVKKGPYLKMYSTYIKEFDKNIALLDEQCKKNPGFAAVVREFEMSPRCANLALKHYLLKPVQRIPQYRLLLTDYLKNLIEDAGDYRDTQDALAVVIEVANHANDTMKQGDNFQKLMQIQYSLNGHHEIVQPGRVFLKEGILMKLSRKVMQPRMFFLFNDALLYTTPVQSGMYKLNNMLSLAGMKVRKPTQEAYQNELKIESVERSFILSASSATERDEWLEAISRAIEEYAKKRITFCPSRSLDEADSENKEEVSPLGSKAPIWIPDTRATMCMICTSEFTLTWRRHHCRACGKIVCQACSSNKYGLDYLKNQPARVCEHCFQELQKLDHQHSPRIGSPGNHKSPSSALSSVLHSIPSGRKQKKIPAALKEVSANTEDSSMSGYLYRSKGNKKPWKHFWFVIKNKVLYTYAASEDVAALESQPLLGFTVIQVKDENSESKVFQLLHKNMLFYVFKAEDAHSAQKWIEAFQEGTIL [FGD6]	-0.173	0.213	0.03	-0.0552
